Where two headings read alike, the source gives them in different places.
Key:
Experiment in all cases: fluorescence polarization
[1] = molecular target: T1, XlBicc1 N-term (KH1-KH3) (Xenopus laevis, UniProt A0A1L8FE49 1-506)
[2] = molecular target: T2, DmBicc1 N-term (Drosophila melanogaster, UniProt Q24009 1-506)
T2 sequence: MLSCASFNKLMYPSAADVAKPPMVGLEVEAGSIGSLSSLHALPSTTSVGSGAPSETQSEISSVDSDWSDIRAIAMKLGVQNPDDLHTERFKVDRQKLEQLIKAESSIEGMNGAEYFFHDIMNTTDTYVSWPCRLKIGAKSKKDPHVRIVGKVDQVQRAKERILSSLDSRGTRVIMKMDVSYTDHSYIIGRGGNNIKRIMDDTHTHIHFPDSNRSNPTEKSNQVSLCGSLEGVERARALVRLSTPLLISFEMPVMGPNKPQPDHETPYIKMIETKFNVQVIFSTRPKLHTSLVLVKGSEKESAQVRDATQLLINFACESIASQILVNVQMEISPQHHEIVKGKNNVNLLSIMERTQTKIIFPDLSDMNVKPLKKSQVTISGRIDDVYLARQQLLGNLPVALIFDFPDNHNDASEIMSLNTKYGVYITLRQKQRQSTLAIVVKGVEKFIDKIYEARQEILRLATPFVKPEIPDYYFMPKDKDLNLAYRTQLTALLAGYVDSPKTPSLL

[3] = molecular target: T3, HsBicc1 N-term (human, UniProt Q9H694 1-506)
T3 sequence (Q9H694 1-506): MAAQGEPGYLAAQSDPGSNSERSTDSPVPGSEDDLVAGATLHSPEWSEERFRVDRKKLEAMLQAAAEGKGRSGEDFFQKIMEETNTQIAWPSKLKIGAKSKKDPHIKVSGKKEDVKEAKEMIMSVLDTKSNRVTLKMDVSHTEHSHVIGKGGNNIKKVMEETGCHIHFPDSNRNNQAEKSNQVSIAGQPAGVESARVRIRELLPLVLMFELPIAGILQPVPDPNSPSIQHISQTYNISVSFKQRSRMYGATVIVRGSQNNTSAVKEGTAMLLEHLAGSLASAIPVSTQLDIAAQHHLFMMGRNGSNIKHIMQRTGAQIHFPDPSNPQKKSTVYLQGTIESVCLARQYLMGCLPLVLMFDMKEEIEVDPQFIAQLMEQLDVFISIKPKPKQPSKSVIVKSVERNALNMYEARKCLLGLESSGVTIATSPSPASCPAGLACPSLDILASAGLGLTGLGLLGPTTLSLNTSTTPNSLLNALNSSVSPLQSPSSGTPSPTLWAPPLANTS

[4] = molecular target: T4, XlKH1-DmBicc1KH2-KH3 (Xenopus laevis / Drosophila …, UniProt A0A1L8FE49 1-134+Q24009:179-506, internal_change)
[5] = molecular target: T3, HsBicc1 N-term; remark: listed apart in the source
[6] = molecular target: T2, DmBicc1 N-term; remark: listed apart in the source
[7] = molecular target: T3, HsBicc1 N-term; remark: listed apart in the source
[8] = molecular target: T4, XlKH1-DmBicc1KH2-KH3; remark: listed apart in the source
[9] = molecular target: T1, XlBicc1 N-term (KH1-KH3); remark: listed apart in the source
[10] = molecular target: T1, XlBicc1 N-term (KH1-KH3); remark: listed apart in the source

CGACUCUAGAAGGUUGUACAUUAACAGCUCC (structured_RNA) [Cripto-1 leader variant]: no binding [1]; no binding [2]; no binding [3].

Work on CUUAUUAGACACGUUGUACAUUAACAGCUCC (structured_RNA) [XlCripto-1 wild-type RNA site] yielded a Kd [1] of 34 nM, a Kd [2] of 93 nM and a Kd [4] of 89 nM. CUUAUUAGACACGUUGUACAUUAACAGCUCC (structured_RNA) [XlCripto-1 wild-type RNA site]: binds [5].

CUUAUUAGACACGUUGUCGCGAAACAGCUCC (structured_RNA) [Cripto-1 loop variant] was tested, and the binding signal [6] was 3.2 fold reduction vs wild-type RNA, the binding signal [7] was 15 fold reduction vs wild-type RNA and the binding result [8] was “no binding”. The Kd [9] was ~12 µM.

CGACUCUAGAAGGACUACGUGGCAUUCCAAUU (ssRNA) [Cyclin B1 negative control RNA]: no binding [10].

Source: publication doi:10.1101/2022.07.22.501140
